{"source": "patent US20140363865A1", "about": "“SUPPLEMENTATION OF FATTY ACIDS FOR IMPROVING ALCOHOL PRODUCTIVITY” (BUTAMAX ADVANCED BIOFUELS LLC, priority 2010, published 2014)", "molecules": {"B1": {"name": "Palatase ® 20000 L: commercial lipase preparation available from Novozymes (protein, UniProt P19515 95-363, looked up)", "Lipase": "SIDGGIRAATSQEINELTYYTTLSANSYCRTVIPGATWDCIHCDATEDLKIIKTWSTLIYDTNAMVARGDSEKTIYIVFRGSSSIRNWIADLTFVPVSYPPVSGTKVHKGFLDSYGEVQNELVATVLDQFKQYPSYKVAVTGHSLGGATALLCALDLYQREEGLSSSNLFLYTQGQPRVGDPAFANYVVSTGIPYRRTVNERDIVPHLPPAAFGFLHAGEEYWITDNSPETVQVCTSDLETSDCSNSIVPFTSVLDHLSYFGINTGLCT"}, "B2": {"name": "Lipolase ® 100 L: commercial lipase preparation available from Novozymes (protein, UniProt O59952 23-291, looked up)", "Lipase": "EVSQDLFNQFNLFAQYSAAAYCGKNNDAPAGTNITCTGNACPEVEKADATFLYSFEDSGVGDVTGFLALDNTNKLIVLSFRGSRSIENWIGNLNFDLKEINDICSGCRGHDGFTSSWRSVADTLRQKVEDAVREHPDYRVVFTGHSLGGALATVAGADLRGNGYDIDVFSYGAPRVGNRAFAEFLTVQTGGTLYRITHTNDIVPRLPPREFGYSHSSPEYWIKSGTLVPVTRNDIVKIEGIDATGGNNQPNIPDIPAHLWYFGLIGTCL"}}, "key": {"S. cerevisiae culture": {"system": "S. cerevisiae culture", "settings": "cerulenin added to the culture; cited from earlier work"}, "[1]": {"assay": "Lipase screening for treatment of ground whole corn kernels prior to liquefaction (Example 25)", "assay_type": "biochemical", "settings": "55° C., pH 5.8", "method": "Seven reaction mixtures containing tap water (67.9 g) and ground whole corn kernels (35.1 g wet wt., ground with 1.0 mm screen using a hammer mill) at pH 5.8 were stirred at 55° C. in stoppered flasks. A 3-mL sample (t=0 h) was removed from each flask and the sample immediately frozen on dry ice, then ca. 0.5 mL of 10 mM sodium phosphate buffer (pH 7.0) containing 1 mg total soluble protein (10 ppm final concentration in reaction mixture) of one of the following lipases (Novozymes) were added to one of each flask: Lipolase® 100 L, Lipex® 100L, Lipoclean® 2000T, Lipozyme® CALB L, Novozyme® CALA L, and Palatase 20000L; no lipase was added to the seventh flask. The resulting mixtures were stirred at 55° C. in stoppered flasks, and 3-mL samples were withdrawn from each reaction mixture at 1 h, 2 h, 4 h and 6 h and immediately frozen in dry ice until analyzed for wt % lipid (derivatized as fatty acid methyl esters, FAME) and for wt % free fatty acid (FFA, derivatized as fatty acid methyl esters, FAME) according to the method described by Reference 1, and the percent free fatty acid content was calculated relative to the total combined concentrations of lipid and free fatty acid was determined for each sample."}, "[2]": {"assay": "Heat inactivation of lipase in lipase-treated liquefied corn mash mixed with oleyl alcohol (Example 22)", "assay_type": "biochemical", "method": "Tap water (918.4 g) was added to a jacketed 2-L resin kettle, then 474.6 g wet weight (417.6 g dry weight) of ground whole corn kernels (1.0 mm screen on hammer mill) was added with stirring. The mixture was heated to 55° C. with stirring at 300 rpm, and the pH adjusted to 5.8 with 2 N sulfuric acid. To the mixture was added 14.0 g of an aqueous solution containing 0.672 g of Spezyme®-FRED L (Genencor®, Palo Alto, Calif.), and the temperature of the mixture increased to 85° C. with stirring at 600 rpm and pH 5.8. After 120 minutes at 85° C., the mixture was cooled to 50° C. and 45.0 mL aliquots of the resulting liquefied corn mash were transferred to 50-mL polypropylene centrifuge tubes and stored frozen at −80° C.\nIn a first reaction, 50 g of liquefied corn mash prepared as described above was mixed with 10 ppm Lipolase® 100 L (Novozymes) for 6 h at 55° C. and with no inactivation of lipase at 85° C. for 1 h, the mixture was cooled to 30° C. In a second reaction, 50 g of liquefied corn mash was mixed with 10 ppm Lipolase® for 6 h at 55° C., then heated to 85° C. for 1 h (lipase inactivation), then cooled to 30° C. In a third reaction, 50 g of liquefied corn mash without added lipase was mixed for 6 h at 55° C., and with no heating at 85° C. for 1 h, the mixture was cooled to 30° C., 38 g of oleyl alcohol was added, and the resulting mixture stirred for 73 h at 30° C. In a fourth reaction, 50 g of liquefied corn mash without added lipase was mixed for 6 h at 55° C., then heated to 85° C. for 1 h, then cooled to 30° C. Each of the four reaction mixtures was sampled at 6 h, then 38 g of oleyl alcohol added, and the resulting mixtures stirred at 30° C. and sampled at 25 h and 73 h. Samples (both liquefied mash and oleyl alcohol (OA)) were analyzed for wt % lipid (derivatized as fatty acid methyl esters, FAME) and for wt % free fatty acid (FFA, derivatized as fatty acid methyl esters, FAME) according to the method described by Reference 1."}, "[3]": {"assay": "Lipase treatment of ground whole corn kernels prior to liquefaction, then mixing with oleyl alcohol (Example 24)", "assay_type": "biochemical", "method": "Tap water (1377.6 g) was added into each of two jacketed 2-L resin kettles, then 711.9 g wet weight (625.8 g dry weight) of ground whole corn kernels (1.0 mm screen on hammer mill) was added to each kettle with stirring. Each mixture was heated to 55° C. with stirring at 300 rpm, and the pH adjusted to 5.8 with 2 N sulfuric acid. To each mixture was added 21.0 g of an aqueous solution containing 1.008 g of Spezyme®-FRED L (Genencor®, Palo Alto, Calif.). To one mixture was then added 10.5 mL of aqueous solution of Lipolase® 100L Solution (21 mg total soluble protein, 10 ppm lipase final concentration) and to the second mixture was added 1.05 mL of aqueous solution of Lipolase® 100L Solution (2.1 mg total soluble protein, 1.0 ppm lipase final concentration). Samples were withdrawn from each reaction mixture at 1 h, 2 h, 4 h and 6 h at 55° C., then the temperature of the mixture was increased to 85° C. with stirring at 600 rpm and pH 5.8, and a sample was taken when the mixture first reached 85° C. After 120 minutes at 85° C., a sample was taken and the mixtures were cooled to 50° C. and final samples of the resulting liquefied corn mash were transferred to 50-mL polypropylene centrifuge tubes; all samples were stored frozen at −80° C.\nIn two separate reactions, a 50 g sample of the 10 ppm lipase-treated liquefied corn mash or a 55 g sample of the 1.0 ppm lipase-treated liquefied corn mash prepared as described above was mixed with oleyl alcohol (OA) (38 g) at 30° C. for 20 h, then the liquefied mash and OA in each reaction mixture were separated by centrifugation and each phase analyzed for wt % lipid (derivatized as fatty acid methyl esters, FAME) and for wt % free fatty acid (FFA, derivatized as fatty acid methyl esters, FAME) according to the method described by Reference 1. The % FFA in the OA phase of the liquefied mash/OA mixture prepared using heat inactivation of 10 ppm lipase during liquefaction was 98% at 20 h, compared to only 62% FFA in the OA phase of the liquefied mash/OA mixture prepared using heat inactivation of 1.0 ppm lipase during liquefaction."}, "[4]": {"settings": "0 h (sample before lipase addition)"}}}
{"molecule": "C/C=C/C/C=C/CCC(=O)[C@H]1O[C@H]1C(N)=O", "note": "[Cerulenin, cerulenin]", "values": [{"measurement": "growth of S. cerevisiae culture", "setting": "S. cerevisiae culture", "result": "inhibition of the growth"}]}
{"molecule": "B1", "values": [{"measurement": "% FFA", "setting": "[1]; [4]", "result": 37, "unit": "%"}, {"measurement": "% FFA", "setting": "[1]; 1 h, 10 ppm lipase", "result": 49, "unit": "%"}, {"measurement": "% FFA", "setting": "[1]; 2 h, 10 ppm lipase", "result": 59, "unit": "%"}, {"measurement": "% FFA", "setting": "[1]; 4 h, 10 ppm lipase", "result": 62, "unit": "%"}, {"measurement": "% FFA", "setting": "[1]; 6 h, 10 ppm lipase", "result": 66, "unit": "%"}]}
{"molecule": "B2", "values": [{"measurement": "% FFA", "setting": "[2]; 10 ppm active lipase, no 85° C. heat treatment, 6 h, liq. mash", "result": 89, "unit": "%"}, {"measurement": "% FFA", "setting": "[2]; 10 ppm active lipase, no 85° C. heat treatment, 25 h, OA", "result": 40, "unit": "%"}, {"measurement": "% FFA", "setting": "[2]; 10 ppm active lipase, no 85° C. heat treatment, 25 h, liq. mash", "result": 20, "unit": "%"}, {"measurement": "% FFA", "setting": "[2]; 10 ppm active lipase, no 85° C. heat treatment, 73 h, OA", "result": 21, "unit": "%"}, {"measurement": "% FFA", "setting": "[2]; 10 ppm active lipase, no 85° C. heat treatment, 73 h, liq. mash", "result": 18, "unit": "%"}, {"measurement": "% FFA", "setting": "[2]; 10 ppm inactive lipase, 85° C. heat treatment, 6 h, liq. mash", "result": 89, "unit": "%"}, {"measurement": "% FFA", "setting": "[2]; 10 ppm inactive lipase, 85° C. heat treatment, 25 h, OA", "result": 99, "unit": "%"}, {"measurement": "% FFA", "setting": "[2]; 10 ppm inactive lipase, 85° C. heat treatment, 25 h, liq. mash", "result": 53, "unit": "%"}, {"measurement": "% FFA", "setting": "[2]; 10 ppm inactive lipase, 85° C. heat treatment, 73 h, OA", "result": 95, "unit": "%"}, {"measurement": "% FFA", "setting": "[2]; 10 ppm inactive lipase, 85° C. heat treatment, 73 h, liq. mash", "result": 62, "unit": "%"}, {"measurement": "% FFA", "setting": "[3]; 1.0 ppm lipase at 55° C., 1 h, pre-liquefaction", "result": 54, "unit": "%"}, {"measurement": "% FFA", "setting": "[3]; 1.0 ppm lipase at 55° C., 2 h, pre-liquefaction", "result": 51, "unit": "%"}, {"measurement": "% FFA", "setting": "[3]; 1.0 ppm lipase at 55° C., 4 h, pre-liquefaction", "result": 58, "unit": "%"}, {"measurement": "% FFA", "setting": "[3]; 1.0 ppm lipase at 55° C., 6 h, pre-liquefaction", "result": 57, "unit": "%"}, {"measurement": "% FFA", "setting": "[3]; 1.0 ppm lipase, 0 h, 85° C., liq. mash", "result": 49, "unit": "%"}, {"measurement": "% FFA", "setting": "[3]; 1.0 ppm lipase, 2 h, 85° C., liq. mash", "result": 50, "unit": "%"}, {"measurement": "% FFA", "setting": "[3]; 1.0 ppm lipase, mix with OA, 20 h, 30° C., OA", "result": 62, "unit": "%"}, {"measurement": "% FFA", "setting": "[3]; 1.0 ppm lipase, mix with OA, 20 h, 30° C., liq. mash", "result": 20, "unit": "%"}, {"measurement": "% FFA", "setting": "[3]; 10 ppm lipase at 55° C., 1 h, pre-liquefaction", "result": 74, "unit": "%"}, {"measurement": "% FFA", "setting": "[3]; 10 ppm lipase at 55° C., 2 h, pre-liquefaction", "result": 77, "unit": "%"}, {"measurement": "% FFA", "setting": "[3]; 10 ppm lipase at 55° C., 4 h, pre-liquefaction", "result": 82, "unit": "%"}, {"measurement": "% FFA", "setting": "[3]; 10 ppm lipase at 55° C., 6 h, pre-liquefaction", "result": 87, "unit": "%"}, {"measurement": "% FFA", "setting": "[3]; 10 ppm lipase, 0 h, 85° C., liq. mash", "result": 86, "unit": "%"}, {"measurement": "% FFA", "setting": "[3]; 10 ppm lipase, 2 h, 85° C., liq. mash", "result": 85, "unit": "%"}, {"measurement": "% FFA", "setting": "[3]; 10 ppm lipase, mix with OA, 20 h, 30° C., OA", "result": 98, "unit": "%"}, {"measurement": "% FFA", "setting": "[3]; 10 ppm lipase, mix with OA, 20 h, 30° C., liq. mash", "result": 48, "unit": "%"}, {"measurement": "% FFA", "setting": "[1]; [4]", "result": 33, "unit": "%"}, {"measurement": "% FFA", "setting": "[1]; 1 h, 10 ppm lipase", "result": 56, "unit": "%"}, {"measurement": "% FFA", "setting": "[1]; 2 h, 10 ppm lipase", "result": 74, "unit": "%"}, {"measurement": "% FFA", "setting": "[1]; 4 h, 10 ppm lipase", "result": 76, "unit": "%"}, {"measurement": "% FFA", "setting": "[1]; 6 h, 10 ppm lipase", "result": 79, "unit": "%"}]}
